Data: the supplement of paper PMC9170038

Columns and labels:
MS2 coat protein [1] = test: apparent KD of MS2 coat protein, switch OFF state (with FMN for OFF switches, without FMN for ON switches); designed switch direction (-1 OFF switch, 1 ON switch): -1; higher = weaker reporter binding; settings: FMN input: 0 or 200 uM; Eterna round: R93 (includes R88 designs)
Procedure, shortened: (§1)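 Designed RNA switches were transcribed on-chip from Illumina sequencing clusters and titrated with SNAP-549-labelled MS2 coat protein in twofold steps from 0.7 or 1.5 nM up to 3 µM. Each step lasted 0.8–1.5 h at first and 10–20 min by the end, in 100 mM Tris-HCl pH 7.5, 80 mM KCl and 4 mM MgCl2, without or with constant ligand. Apparent KD is the median, for each design, of fits to normalised cluster binding curves.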

MS2 coat protein [2] = test: apparent KD of MS2 coat protein, switch ON state; designed switch direction (-1 OFF switch, 1 ON switch): -1; higher = weaker reporter binding; settings: FMN input: 0 or 200 uM; Eterna round: R93 (includes R88 designs)
Procedure, shortened: as §1

| Sequence | apparent KD of MS2 coat protein (MS2 coat protein [1]) [nM] | apparent KD of MS2 coat protein (MS2 coat protein [2]) [nM] |
| --- | --- | --- |
| AAAAAGGGAGGAUAUGCAUACACACAAAAAAAAAAACCGGGACAUGAGGAUCACCCAUGUAGAAGGCCCAAAAA [Dora Explored 6 - Jieux - Exclusion 2] | 25 | 33.5 |
| AAAAAGUAAGGAUAUACAAAAAUAAAAAAUUAUGAUAAAAAACAUGAGGAUCACCCAUGUAGAAGGUACGAAAA [AJ 3] | 26.7 | 27.5 |
| AAAAAGUAAGGAUAUAUAAAAAUAAAAAAUUAUGAUAAAAAACAUGAGGAUCACCCAUGUAGAAGGUACGAAAA [AJ 2] | 25.6 | 26.2 |
| AAAAAGUCAGGAUAUACAGAAAAAAAAACGAAAAAAAAUCUGUAGAAGGGACAUGAGGAUCACCCAUGUUAAAA [Ex 4 May 13] | 26.8 | 41.5 |
| AAAAAGUCAGGAUAUACAGGAGUGCGAAAGCACAAAAAAAAACAUGAGGAUCACCCAUGUAGAAGGGACAAGAA [Married to this design, 61% 6] | 33.1 | 52.7 |
| AAAAAGUCAGGAUAUACGAAAGUGCGAAAGCACAAAAGGAAACAUGAGGAUCACCCAUGUAGAAGGGACAAGAA [Married to this design, 61% 1] | 32.8 | 45.4 |
| AAAAAGUCAGGAUAUACGAACAUGUCAAAAGACGUGAAGGGACAUGAGGAUCACCCAUGUAGAAGGGACAAGAA [JL Stem Breaker 20] | 39.6 | 85.2 |
| AAAAAGUCAGGAUAUACGUACAUGUCGAAAGACGUGAAGGGACAUGAGGAUCACCCAUGUAGAAGGGACAAGAA [Mat - Exclusion 2 - JL mod - D78] | 91.8 | 99.6 |
| AAAAAGUCAGGAUAUAUCAAAGCCUAUGAAAGUGGGAAAGGGUAGAAGGGACAUGAGGAUCACCCAUGUAAAAA [Banishment 10 - Jieux - Exclusion 4] | 38.5 | 62.3 |
| AAAAAGUCAGGAUAUCGGAAAAAAAAAAAAAAAAGGAGAAACGAGAAGGGACAUGAGGAUCACCCAUGUAAAAA [No Frills] | 44 | 117 |
| AAAAAGUCAGGAUAUCGGAAAAAAAAAAUAAAAAAAAAAAACGAGAAGGGACAUGAGGAUCACCCAUGUAUGAC [Mat - Exclusion 4 - Mayanna - D112] | 41.3 | 37.4 |
| AAAAAGUCAGGAUAUGCAUGAGCAAAAAAAAAAAAGCUCAUGCAGAAGGGACAUGAGGAUCACCCAUGUAAAAA [Ex 4 May 10] | 48.6 | 70.2 |
| AAAAAGUCAGGAUAUGGCAAAGGUCACGAAAGUGACAAAGGCUAGAAGGGACAUGAGGAUCACCCAUGUAAAAA [Fiskers Exclusion 4 D3] | 35.3 | 53.4 |
| AAAAAGUCAGGAUAUGUCAAAAGUCACAAAAGUGACAAAAGACAGAAGGGACAUGAGGAUCACCCAUGUAAAAA [Mod of Eli] | 46.1 | 53.1 |
| AAAAAGUGAGGAUAUACAUGAGGAUCACCCAUGUAAAAGGUCGCGGGAGGGAGGGACGGUAGAAGGCGCAAAAA [Excls3-VII] | 22.2 | 15.7 |
| AAAAAGUGAGGAUAUACAUGAGGAUCACCCAUGUGAAAUCGGAAAAAAAAGGAAAAAAGUAGAAGGCACAAAAA [Mat - Mod of Eli] | 19.3 | 17.1 |
| AAAAAGUGAGGAUAUACGAGGAGAAACAACAAACAAACAAAACAUGAGGAUCACCCAUGUAGAAGGCACAAAAA [Ex 2 sub 3] | 28.6 | 22.4 |
| AAAAAGUGAGGAUAUGAAAAUAAAAAAAAAAAAAAAAUAAAUCAGAAGGCACAUGAGGAUCACCCAUGUAAAAA [JR_Exc004_Sub1201] | 38 | 29.8 |
| AAAAAGUGAGGAUAUGCGAAGGCGUCUGAUAGACGAGGCUAGCAGAAGGCACAUGAGGAUCACCCAUGUGGGAA [Mat - Mod of Nando 64% 3] | 98.5 | 53.8 |
| AAAAAGUGAGGAUAUGCGCUGUCAAGUAGACACGAGCAGUCGUAGAAGGCACAUGAGGAUCACCCAUGUUCAAA [EX4 Malc#22] | 16 | 25.4 |
| AAAAAGUGAGGAUAUGCGCUGUCAAGUAGACACGAGCAGUCGUAGAAGGCACAUGAGGAUCACCCAUGUUUAAA [EX4 Malc#23] | 19.4 | 28.5 |
| AAAAAGUGAGGAUAUGUACGAAAAAAUAAAAAAAUAAAAGUACAGAAGGCACAUGAGGAUCACCCAUGUGAAAA [EX4 397: Minimal 10] | 22.9 | 27.4 |

| Sequence | apparent KD of MS2 coat protein (MS2 coat protein [1]) [nM] | apparent KD of MS2 coat protein (MS2 coat protein [2]) [nM] |
| --- | --- | --- |
| AAAAAGUGAGGAUAUUCGGAAGGGAAAGCGCAAACCCAACCGAAGAAGGCACAUGAGGAUCACCCAUGUGGAAA [Ecls4-III 65% - Early + late G segment 2] | 26.8 | 32.1 |
| AAAAAGUUAGGAUAUACAUGAGGAUCACCCAUGUACACAUAUGGAGAAUAUGGUAGUAGUAGAAGGGACAAAAA [EX2 Malc#15] | 31.1 | 27.1 |
| AAAAAGUUAGGAUAUACAUGAGGAUCACCCAUGUGCACGUAUGGAGAAUAUGGUGGUGGUAGAAGGGACAAAAA [EX2 Malc#19] | 65.5 | 43.2 |
| AAAAAUCGAGGAUAUACAUGAGGAUCACCCAUGUCAGAAAAUGACUACACAAAAGAAAGUAGAAGGCGAUAAAG [Mat - Exclusion 3 - Mayanna mod - D131] | 64.1 | 32 |
| AAAAAUCGAGGAUAUACAUGAGGAUCACCCAUGUGGGACCAAGAAAACACAAAAGAAAGUAGAAGGCGAUAAAA [Ex 3 May 23] | 76.4 | 21.9 |
| AAAAAUCUAGGAUAUACAUGAGGAUCACCCAUGUAAGAAAAUGAUUACACAAAAGAAAGUAGAAGGAGAUAAAA [Ex 3 May 19] | 18.4 | 17.4 |
| AAAAAUGCAGGAUAUACAUGAGGAUCACCCAUGUUAGACCUGAAAAAAGGGAAAGAAAGUAGAAGGGCAUAAAA [Ex 3 May 30] | 11.2 | 12.7 |
| AAAAAUGCAGGAUAUACGAACAUGUCGAAAGACGUGAAGGGACAUGAGGAUCACCCAUGUAGAAGGGUAAAGAA [Mat - Exclusion 2 - JL mod - D74] | 62.5 | 264 |
| AAAAAUGGAGGAUAUACAUGAGGAUCACCCAUGUGUAACUAUACUAAACACAAAAAAAGUAGAAGGCCAAAAAA [Gilly Gone Silly 8 - Jieux - Exclusion 3] | 50 | 32.7 |
| AAAAAUGGAGGAUAUACAUGAGGAUCACCCAUGUGUAACUAUACUAAGCGCUCCUCAGGUAGAAGGCCAAAAAA [Gilly Gone Silly 15 - Jieux - Exclusion 3] | 48 | 70.9 |
| AAAAAUUGAGGAUAUACGAACAUGUCAAAAGACGUGAAGGGACAUGAGGAUCACCCAUGUAGAAGGCGAAAAAA [JL Loop Breaker 2] | 19.7 | 41.3 |
| AAAAAUUGAGGAUAUACGUACAUGUCAAAAGACGUGAAGGGACAUGAGGAUCACCCAUGUAGAAGGCGAAAAAA [JL Neck Breaker 12] | 13.6 | 38.8 |
| AAAACACAUGAGGAUCACCCAUGUGAGGAUAUGCUAUGGAAAUAAAAAAUAAAACAUAGCAGAAGGCACAAAAA [Mat - Exclusion 1 - Eli mod - D40] | 39 | 23.9 |
| AAAACGGCAGGAUAUACGAUUGGGAACUAGACCGAGGAACCACAUGAGGAUCACCCAUGUAGAAGGGCCAAAAA [Ex2 Malc#15] | 96.1 | 24.2 |
| AAAACGUGAGGAUAUACUAAAAUAAAAAAUUAUGUUAAAAAACAUGAGGAUCACCCAUGUAGAAGGCACAAAAA [AJ 3] | 28.6 | 29.8 |
| AAAACGUGAGGAUAUGCACCAAAAAAAAAAAAACGGGUACGACAUGAGGAUCACCCAUGUAGAAGGCACGAAAA [Frodo Flailing 7 - Jieux - Exclusion 2] | 39.4 | 56 |
| AAAACUGGAGGAUAUACGUACAUGUCGAAAGACGUGAAGGGACAUGAGGAUCACCCAUGUAGAAGGCUAGAAAA [Mat - Exclusion 2 - JL mod - D71] | 87.6 | 53.1 |
| AAAAGACAUGAGGAUCACCCAUGUUAGGAUAUCGUGCAGAAAAAAAAAAAAAACUGCACGAGAAGGAACAAGGA [Seclusion] | 51.9 | 30.5 |
| AAAAGUAGAGGAUAUACAUGAGGAUCACCCAUGUAGAAAGGAAGUGUAUAUAUGGCAUGUAGAAGGCUACAUGA [Banishment 8 - Jieux - Exclusion 3] | 34.2 | 27.4 |
| AAAAGUGGAGGAUAUACAUGAGGAUCACCCAUGUGUAAAAAUAAAAACACAAAAGAAAGUAGAAGGCCACAAAG [Mat - Exclusion 3 - Mayanna mod - D115] | 55.2 | 19.4 |
| AAAAUGUCAGGAUAUGCGAAGGCGUCUGAUAGAAGAGGAUAGCAGAAGGGACAUGAGGAUCACCCAUGUGGAAA [Opal 25] | 124 | 72.3 |
| AAAAUGUCAGGAUAUGCGAAGGCGUCUGAUAGACGAGGCUAGCAGAAGGGACAUGAGGAUCACCCAUGUAAAAA [Power strip] | 179 | 82.2 |
